According to the Human Domainome abundance scans (Beltran et al. 2025):
± gives the uncertainty stated by the source.

B1: Homeobox protein cut-like 1, residues 941 to 1008; numbered along this chain, P39880 (parent)
chain: QEVDTIELTRQVKEKLAKNGICQRIFGEKVLGLSQGSVSDMLSRPKPWSKLTQKGREPFIRMQLWLNG

Variants of: B1
Assay: abundance fitness (aPCA) (normalised: wild type 0, dead -1); higher = more abundant; growth selection in yeast, the domain comes from the species named
Settings: Homo sapiens

Question: Which abundance fitness does the source give for QEVDTIELTRQVKEKLCKNGICQRIFGEKVLGLSQGSVSDMLSRPKPWSKLTQKGREPFIRMQLWLNG here?
Answer: Its abundance fitness is -0.154 ± 0.089.

Question: Which abundance fitness does the source give for QEVDTIELTRQVKEKLIKNGICQRIFGEKVLGLSQGSVSDMLSRPKPWSKLTQKGREPFIRMQLWLNG here?
Answer: Its abundance fitness is -0.022 ± 0.1.

Question: With QEVDTIELTRQVKEKLAKNGICQRIGGEKVLGLSQGSVSDMLSRPKPWSKLTQKGREPFIRMQLWLNG as the variant, how does the abundance fitness read?
Answer: The abundance fitness was -0.622 ± 0.078.

Question: With QEVDTIELTRQVKEKLAKNGICQRIFGEKVLGLSQGSVSDMLSRPKPMSKLTQKGREPFIRMQLWLNG as the variant, how does the abundance fitness read?
Answer: Its abundance fitness is -0.65 ± 0.072.

Question: Which abundance fitness does the source give for QEVDTIELTRQVKEKLAKNGICQRDFGEKVLGLSQGSVSDMLSRPKPWSKLTQKGREPFIRMQLWLNG here?
Answer: Its abundance fitness is 0.156 ± 0.11.

Question: Which abundance fitness does the source give for QEVDTIELTRQVKEKLAKNGIKQRIFGEKVLGLSQGSVSDMLSRPKPWSKLTQKGREPFIRMQLWLNG here?
Answer: Its abundance fitness is -0.229 ± 0.084.

Question: For QEVDTIELTDQVKEKLAKNGICQRIFGEKVLGLSQGSVSDMLSRPKPWSKLTQKGREPFIRMQLWLNG, which abundance fitness is on record?
Answer: The abundance fitness was -0.112 ± 0.11.

Question: With QEVDTIELTRQVKEKLAKNGICQRIFGEKVLGLSLGSVSDMLSRPKPWSKLTQKGREPFIRMQLWLNG as the variant, how does the abundance fitness read?
Answer: The abundance fitness was -0.003 ± 0.046.

Question: With QEVDTIELTRQVKEKLAKNGICQRIFGEKVLGLSQGSVSDMLSRPKPWSKLTQKGREPFRRMQLWLNG as the variant, how does the abundance fitness read?
Answer: Its abundance fitness is 0.071 ± 0.058.

Question: For QEVDTIELTRQVKEKLAKNGICQRIFGEKVLGLSQGSVSDMLSRPKPWSKLTQKGREPFFRMQLWLNG, which abundance fitness is on record?
Answer: The abundance fitness was -0.205 ± 0.12.

Question: Which abundance fitness does the source give for QEVDTIELTRQVKEKLAKNGICQRIFGEKVLGLSQGSVSDMLSRPKPWSKLTQKGREPFERMQLWLNG here?
Answer: The abundance fitness was -0.152 ± 0.086.

Question: Which abundance fitness does the source give for QEVDTIELTRQVKEKLAKNGICQRIFGEKVLGLSQGSVSDMLSRPKPWSKLTQKGREPFCRMQLWLNG here?
Answer: Its abundance fitness is -0.139 ± 0.12.

Question: With QEVDTIELTRQVKEKLAKNGICQRIFGEKVLGLSQGSVSDNLSRPKPWSKLTQKGREPFIRMQLWLNG as the variant, how does the abundance fitness read?
Answer: Its abundance fitness is -0.275 ± 0.097.

Question: With QEVDTIELTRQVKEKLAKNGICQRIFGEKVLGLSQGSVSDVLSRPKPWSKLTQKGREPFIRMQLWLNG as the variant, how does the abundance fitness read?
Answer: The abundance fitness was -0.007 ± 0.045.

Question: Which abundance fitness does the source give for QEVDTIELTRQVKEKLAKNGICQRIFGEKVLGLSQGSVSDMLSRPKPWSKLTQKGREPFIRMQLWLNV here?
Answer: Its abundance fitness is -0.565 ± 0.086.

Question: Which abundance fitness does the source give for QEVDTIELTRQVKEKLAKNGICQRIFGEKVLGLSQGSVSDMLSRPKPWIKLTQKGREPFIRMQLWLNG here?
Answer: Its abundance fitness is -0.43 ± 0.086.

Question: For QEVDTIELTRQVKEKLAKNGICQRIFGEKVLGLSQGSVSDMLSRPKPWKKLTQKGREPFIRMQLWLNG, which abundance fitness is on record?
Answer: Its abundance fitness is 0.029 ± 0.074.

Question: Which abundance fitness does the source give for QEVDTIELTRQVKEKLAKNGICQRIFGEKVLGLSQGSVSDMLSRPKPWVKLTQKGREPFIRMQLWLNG here?
Answer: Its abundance fitness is -0.177 ± 0.058.

Question: For QEVDTIELTRQVKEKLAKNGICQRIFGEKVLGLSQGSVSDMLSRPKLWSKLTQKGREPFIRMQLWLNG, which abundance fitness is on record?
Answer: Its abundance fitness is -0.029 ± 0.05.

Question: For QEVDTIELTRQVKEKLAKNCICQRIFGEKVLGLSQGSVSDMLSRPKPWSKLTQKGREPFIRMQLWLNG, which abundance fitness is on record?
Answer: Its abundance fitness is -0.317 ± 0.082.

Question: For QEVDTIELTRQVKEKLAKNQICQRIFGEKVLGLSQGSVSDMLSRPKPWSKLTQKGREPFIRMQLWLNG, which abundance fitness is on record?
Answer: The abundance fitness was 0.067 ± 0.081.

Question: With QEVDTIELTRQVKEKLAKNMICQRIFGEKVLGLSQGSVSDMLSRPKPWSKLTQKGREPFIRMQLWLNG as the variant, how does the abundance fitness read?
Answer: Its abundance fitness is -0.231 ± 0.081.

Question: For QEVDTIELTRQVKEKLAKNGICQRIFGEKVLGLSQGSVSDMLSRPKPWSHLTQKGREPFIRMQLWLNG, which abundance fitness is on record?
Answer: Its abundance fitness is -0.184 ± 0.093.

Question: With QEVDTIELTRQVKEKLAKNGICQRIFGEKVLGLSQGSVSDMLSRPKPWSNLTQKGREPFIRMQLWLNG as the variant, how does the abundance fitness read?
Answer: Its abundance fitness is -0.221 ± 0.088.

Question: Which abundance fitness does the source give for QEVDTIELTRQVKEKLAKNGICQRIFGEKVLGLSQGSVSDMLSRPKPWSQLTQKGREPFIRMQLWLNG here?
Answer: The abundance fitness was 0.028 ± 0.071.

Question: Which abundance fitness does the source give for QEVDTIELTRQVKEKLAKNGICQRIFGEKVLGLSQGSVSDMLSGPKPWSKLTQKGREPFIRMQLWLNG here?
Answer: The abundance fitness was -0.118 ± 0.044.

Question: For QEVDTIELTRQVKEKLAKNGICQRIFGEKVLGLSQGSVSDMLSEPKPWSKLTQKGREPFIRMQLWLNG, which abundance fitness is on record?
Answer: Its abundance fitness is -0.176 ± 0.072.

Question: Which abundance fitness does the source give for QEVDTIELTRQVKEKLAKNGICQRIFGEKFLGLSQGSVSDMLSRPKPWSKLTQKGREPFIRMQLWLNG here?
Answer: The abundance fitness was -0.657 ± 0.29.

Question: Which abundance fitness does the source give for QEVDTIELTRQVKEKLAKNGICQRIFGEKVLGLSQGSVSDMLSRPKPWSKLTQDGREPFIRMQLWLNG here?
Answer: Its abundance fitness is -0.098 ± 0.11.

Question: With QEVDTIELTRQVKEKLAKNGICQRIFGEKVLGLSQGSVSDMLSRPKPWSKLTQVGREPFIRMQLWLNG as the variant, how does the abundance fitness read?
Answer: The abundance fitness was -0.346 ± 0.071.

Question: With QEVDTIELTRQVKEKLAKNGICQRIFGEKVLGLSQGSVSDMLSRPKPWSKLTQMGREPFIRMQLWLNG as the variant, how does the abundance fitness read?
Answer: Its abundance fitness is -0.263 ± 0.095.

Question: With QEVDCIELTRQVKEKLAKNGICQRIFGEKVLGLSQGSVSDMLSRPKPWSKLTQKGREPFIRMQLWLNG as the variant, how does the abundance fitness read?
Answer: The abundance fitness was -0.233 ± 0.088.

Question: Which abundance fitness does the source give for QEVWTIELTRQVKEKLAKNGICQRIFGEKVLGLSQGSVSDMLSRPKPWSKLTQKGREPFIRMQLWLNG here?
Answer: The abundance fitness was -0.552 ± 0.078.

Question: With QEVQTIELTRQVKEKLAKNGICQRIFGEKVLGLSQGSVSDMLSRPKPWSKLTQKGREPFIRMQLWLNG as the variant, how does the abundance fitness read?
Answer: The abundance fitness was -0.328 ± 0.061.

Question: With QEVDTIELTRQVKEKLAKNGICQRIFGAKVLGLSQGSVSDMLSRPKPWSKLTQKGREPFIRMQLWLNG as the variant, how does the abundance fitness read?
Answer: The abundance fitness was -0.036 ± 0.057.

Question: For QEVDTIELTRQVKEKLAKNGICQRIFGIKVLGLSQGSVSDMLSRPKPWSKLTQKGREPFIRMQLWLNG, which abundance fitness is on record?
Answer: The abundance fitness was -0.277 ± 0.094.

Question: Which abundance fitness does the source give for QEVDTIELTRQVKEKLAKNGICQRIFGEKVLGLSQGSVSFMLSRPKPWSKLTQKGREPFIRMQLWLNG here?
Answer: The abundance fitness was -0.251 ± 0.071.

Question: For QEVDTIELTRQVKERLAKNGICQRIFGEKVLGLSQGSVSDMLSRPKPWSKLTQKGREPFIRMQLWLNG, which abundance fitness is on record?
Answer: The abundance fitness was -0.096 ± 0.063.

Question: With QEVDTIELTRQVKELLAKNGICQRIFGEKVLGLSQGSVSDMLSRPKPWSKLTQKGREPFIRMQLWLNG as the variant, how does the abundance fitness read?
Answer: The abundance fitness was -0.057 ± 0.063.

Question: Which abundance fitness does the source give for QEVDTIELTRQVKEKLAKNGICQRIFGEKVLGLSQGSVSDMLSRPKPWSKLTQKGRYPFIRMQLWLNG here?
Answer: Its abundance fitness is -0.453 ± 0.096.
